According to US20260242448A1 (INSTITUTE OF MICROBIOLOGY CHINESE ACADEMY OF SCIENCES, published 2026):

B1: monoclonal antibody L4.65 (antibody, V domains shown)
VH: QITLKESGPTLVKPTQTLTLTCTFSGFSLSTSGVGVAWIRQPPGKALEWLALIYWDNDKRSSPSLNNRLTITKDTSKNQVVLTMTNMDPEDTATYYCAHFFSHYDSSNYYYGSWFDPWGQGTLVTVSS
VL: EIVLTQSPGTLSLSPGERATLSCRASQSFDSRYLGWYQQKSGQAPRLLIYGASSRATGIPDRFSGSGSGTDFTLTISRLEPEDFAVYYCQQFGDSPFTFGQGTKLEIKR
notes: also called monoclonal antibody 65; 65IgG
B2: monoclonal antibody CoV56 (antibody, V domains shown)
VH: EVQLVESGGGVVQPGGSLRLSCAVSGFTFDDYAMHWVRQAPGKGLDWVSLISGDGSYTYYADSVKGRFTISRDSSKNSLYLQMNSLRTEDTALYYCAKAQTPTLWWLQDAFDIWGQGTMVTVSS
VL: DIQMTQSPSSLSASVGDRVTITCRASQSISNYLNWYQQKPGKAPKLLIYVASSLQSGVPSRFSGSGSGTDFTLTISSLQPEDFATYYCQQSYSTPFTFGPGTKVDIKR
notes: also called monoclonal antibody 56; 56IgG

Legend:
[1] = target: T1, S protein of the SARS-CoV-2 prototype strain on pseudo-virus (SARS-CoV-2 prototype strain, UniProt P0DTC2 14-1273); test: cell-based or functional assay
[2] = target: T1, S protein of the SARS-CoV-2 prototype …; test: cell-based or functional assay; remark: listed apart in the source
[3] = target: T2, RBD of the S protein of the 2019 original strain (2019-nCoV) (SARS-CoV-2 (2019-nCoV original strain), UniProt P0DTC2 319-541); test: ELISA on plate-coated RBD (1 µg/mL), HRP anti-human Fc detection, OD450
T2 construct: domain: RBD; also called 2019-nCoV RBD; SARS-CoV-2 RBD

Binder	Neutralization activity (IC50) against pseudo-virus [1]	Neutralization Effects (IC50) against SARS-CoV-2 pseudo-viruses [2]	EC50 [3]
B1	0.97 ng/mL	0.000709 µg/mL	0.0173 nM
B2	> 2000 ng/mL	8.38 µg/mL	0.0418 nM
